Test [1] has as its target TLR5 (UniProt O60602).
Test [2] addresses Naip5 and Naip6 (Naip5/6) (mouse (endogenous in BMDMs)).
Test [3] has as its target TLR5 (UniProt O60602). This is another data set of the same source.

Chain of UniProt O60602 (O60602 21-858): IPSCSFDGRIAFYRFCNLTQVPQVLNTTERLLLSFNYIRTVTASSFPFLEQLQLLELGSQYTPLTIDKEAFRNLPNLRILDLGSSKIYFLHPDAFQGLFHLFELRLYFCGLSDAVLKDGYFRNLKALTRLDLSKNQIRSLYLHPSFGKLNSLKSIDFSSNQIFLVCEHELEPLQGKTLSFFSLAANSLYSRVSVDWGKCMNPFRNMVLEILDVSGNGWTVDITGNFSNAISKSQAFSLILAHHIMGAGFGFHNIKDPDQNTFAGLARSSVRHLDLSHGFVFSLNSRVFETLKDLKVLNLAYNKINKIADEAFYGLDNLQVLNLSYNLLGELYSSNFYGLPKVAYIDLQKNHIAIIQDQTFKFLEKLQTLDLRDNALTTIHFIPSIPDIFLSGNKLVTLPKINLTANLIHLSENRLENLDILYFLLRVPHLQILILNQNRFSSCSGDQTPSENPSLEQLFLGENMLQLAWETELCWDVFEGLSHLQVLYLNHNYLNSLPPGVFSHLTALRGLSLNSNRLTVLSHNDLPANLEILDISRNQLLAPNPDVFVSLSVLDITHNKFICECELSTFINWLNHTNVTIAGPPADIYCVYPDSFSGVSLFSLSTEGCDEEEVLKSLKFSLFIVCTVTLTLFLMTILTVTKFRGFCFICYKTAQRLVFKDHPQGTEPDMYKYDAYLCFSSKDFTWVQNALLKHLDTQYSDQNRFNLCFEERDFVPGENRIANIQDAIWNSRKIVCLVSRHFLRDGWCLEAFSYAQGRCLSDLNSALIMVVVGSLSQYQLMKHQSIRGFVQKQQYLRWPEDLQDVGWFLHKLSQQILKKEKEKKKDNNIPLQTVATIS

For the substance “FliC flagellin monomers isolated from S. Typhimurium strain SL1344 (ΔflgM) (from UniProt P06179 1-495) (natural protein)”, the TLR5 EC50 (NF-κB luciferase reporter assay, stably transfected CHO K1 cells) with TLR5 [1] was 1.2 ng/mL. Besides, the Inflammasome EC50 (IL-1β secretion of LPS-primed mouse BMDMs after transfection of the protein) in test [2] stood at 2 ng/mL. For the same substance, in the test with TLR5 [3], the TLR5 stimulatory activity, EC50 (NF-κB luciferase reporter assay, stably transfected CHO K1 cells) is 1.1 ng/mL.

In the test with TLR5 [1], “FliC^ΔD3 (from UniProt P06179 1-495) (natural protein)” displayed a TLR5 EC50 (NF-κB luciferase reporter assay, stably transfected CHO K1 cells) of 0.1 ng/mL.

These data come from article PMC11650696.
